Some targets named below: death receptor; αVβ5 integrin (human) (UniProt P06756); αVβ3 integrin (human) (UniProt P06756).
Assay in all cases: cell-based or functional assay

Sequence of αVβ3 integrin (human) (P06756 31-1048, chain 1 of 2): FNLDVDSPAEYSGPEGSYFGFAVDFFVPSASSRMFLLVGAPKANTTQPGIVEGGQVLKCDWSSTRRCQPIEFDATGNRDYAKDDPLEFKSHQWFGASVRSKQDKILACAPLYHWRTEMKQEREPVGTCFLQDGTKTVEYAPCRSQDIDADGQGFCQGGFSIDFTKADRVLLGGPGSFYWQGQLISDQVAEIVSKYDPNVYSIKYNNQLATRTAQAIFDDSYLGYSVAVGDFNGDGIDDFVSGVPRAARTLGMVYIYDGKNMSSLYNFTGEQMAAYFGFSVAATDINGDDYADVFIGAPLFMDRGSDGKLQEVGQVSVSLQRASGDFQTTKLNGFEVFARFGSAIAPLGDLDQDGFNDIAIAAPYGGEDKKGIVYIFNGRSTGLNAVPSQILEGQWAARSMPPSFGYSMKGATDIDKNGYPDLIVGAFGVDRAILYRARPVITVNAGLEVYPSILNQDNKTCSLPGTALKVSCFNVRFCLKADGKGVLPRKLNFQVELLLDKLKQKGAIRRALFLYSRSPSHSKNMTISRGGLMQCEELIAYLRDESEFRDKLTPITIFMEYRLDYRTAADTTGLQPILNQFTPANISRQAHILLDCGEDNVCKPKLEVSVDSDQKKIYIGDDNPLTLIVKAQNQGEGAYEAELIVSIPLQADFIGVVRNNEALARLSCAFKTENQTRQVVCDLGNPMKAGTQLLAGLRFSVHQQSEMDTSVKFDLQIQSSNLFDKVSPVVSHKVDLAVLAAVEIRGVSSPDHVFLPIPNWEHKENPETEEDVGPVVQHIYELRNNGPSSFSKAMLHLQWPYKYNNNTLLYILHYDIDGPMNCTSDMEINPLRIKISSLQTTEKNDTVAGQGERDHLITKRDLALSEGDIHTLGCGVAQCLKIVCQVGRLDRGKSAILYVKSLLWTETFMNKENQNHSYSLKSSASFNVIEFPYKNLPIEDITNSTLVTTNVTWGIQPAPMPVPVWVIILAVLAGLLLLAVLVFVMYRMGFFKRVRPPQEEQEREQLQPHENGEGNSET
Sequence of αVβ3 integrin (human) (P05106 27-788, chain 2 of 2, further chain): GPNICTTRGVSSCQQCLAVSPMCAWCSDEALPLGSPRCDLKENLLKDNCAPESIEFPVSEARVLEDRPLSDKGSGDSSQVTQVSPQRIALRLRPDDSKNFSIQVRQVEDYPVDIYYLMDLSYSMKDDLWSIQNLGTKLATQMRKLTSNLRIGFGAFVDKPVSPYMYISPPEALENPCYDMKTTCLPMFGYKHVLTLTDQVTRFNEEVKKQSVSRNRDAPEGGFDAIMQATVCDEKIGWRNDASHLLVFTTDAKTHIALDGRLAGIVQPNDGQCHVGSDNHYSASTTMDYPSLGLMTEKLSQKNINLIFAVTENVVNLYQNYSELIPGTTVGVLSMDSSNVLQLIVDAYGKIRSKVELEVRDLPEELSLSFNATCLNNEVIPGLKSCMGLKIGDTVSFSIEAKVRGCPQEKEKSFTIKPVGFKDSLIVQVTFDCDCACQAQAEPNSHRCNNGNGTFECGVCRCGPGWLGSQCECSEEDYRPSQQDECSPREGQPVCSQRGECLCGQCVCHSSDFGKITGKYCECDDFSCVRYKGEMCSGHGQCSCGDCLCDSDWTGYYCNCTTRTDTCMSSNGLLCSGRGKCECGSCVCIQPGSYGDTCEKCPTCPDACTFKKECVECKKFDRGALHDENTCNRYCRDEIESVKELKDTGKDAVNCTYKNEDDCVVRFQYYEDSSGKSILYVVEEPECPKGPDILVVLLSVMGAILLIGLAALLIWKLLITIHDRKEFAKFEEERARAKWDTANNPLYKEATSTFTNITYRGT
Sequence of αVβ5 integrin (human) (P06756 31-1048, chain 1 of 2): as the sequence (P06756 31-1048, chain 1 of 2) above
Sequence of αVβ5 integrin (human) (P18084 24-799, chain 2 of 2, further chain): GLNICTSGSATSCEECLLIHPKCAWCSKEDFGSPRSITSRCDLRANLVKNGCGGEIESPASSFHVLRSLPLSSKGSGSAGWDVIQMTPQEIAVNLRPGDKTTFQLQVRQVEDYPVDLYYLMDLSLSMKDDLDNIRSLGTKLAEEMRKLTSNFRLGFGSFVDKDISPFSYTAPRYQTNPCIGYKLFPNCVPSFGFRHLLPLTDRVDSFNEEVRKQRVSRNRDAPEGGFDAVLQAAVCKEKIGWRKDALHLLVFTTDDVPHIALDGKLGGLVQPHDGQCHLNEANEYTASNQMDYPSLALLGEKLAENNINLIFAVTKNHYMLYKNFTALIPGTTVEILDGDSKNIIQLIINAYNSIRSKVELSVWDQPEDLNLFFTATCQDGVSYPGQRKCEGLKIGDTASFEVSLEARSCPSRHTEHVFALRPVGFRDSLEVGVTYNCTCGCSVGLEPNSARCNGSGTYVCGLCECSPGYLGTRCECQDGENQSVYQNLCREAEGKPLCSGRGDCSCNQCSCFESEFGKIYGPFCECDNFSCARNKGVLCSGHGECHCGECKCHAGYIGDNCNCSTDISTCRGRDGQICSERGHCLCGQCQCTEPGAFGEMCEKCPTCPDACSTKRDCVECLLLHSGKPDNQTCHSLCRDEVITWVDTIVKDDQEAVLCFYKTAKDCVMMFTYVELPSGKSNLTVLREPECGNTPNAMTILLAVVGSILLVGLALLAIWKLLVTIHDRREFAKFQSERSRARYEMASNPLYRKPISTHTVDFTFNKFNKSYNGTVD

Regarding “RGD-L-TRAIL (human TRAIL variant: short peptide …, connecting peptide of five glycines, TRAIL) (from UniProt P50591 114-281)”, in the test with death receptor, the apoptosis rate of COLO-205 cells at 2.43 ng/ml (Annexin V-FITC and PI double staining) came to 87.5%; the caspase-8 and caspase-3 activity in Jurkat cells after two hours, against the same dose of wild-type TRAIL stood at 2.5 times; the medial lethal dose on COLO-205 cells amounted to 0.37 ng/mL; the medial lethal dose on Jurkat cells amounted to 0.41 ng/mL. The same substance yielded a medial lethal dose on MDA-MB-231 cells in the test with death receptor of 1.2 ng/mL. In the test with αVβ5 integrin (human), this substance came in with a fold reduction of the medial lethal dose against wild-type TRAIL, COLO-205 cells of 9.5 times; a fold reduction of the medial lethal dose against wild-type TRAIL, Jurkat cells of 16.3 times; a fold reduction of the medial lethal dose against wild-type TRAIL, MDA-MB-231 cells of 1.9 times. For the same substance, in the test with αVβ3 integrin (human), the fold reduction of the medial lethal dose against wild-type TRAIL, COLO-205 cells was determined as 9.5 times; the fold reduction of the medial lethal dose against wild-type TRAIL, Jurkat cells turned out to be 16.3 times; the fold reduction of the medial lethal dose against wild-type TRAIL, MDA-MB-231 cells was determined as 1.9 times.

For the origin of these results see patent publication US9340596.
